B1: Major outer membrane lipoprotein Lpp, P69776 (parent)
chain: MKATKLVLGAVILGSTLLAGCSSNAKIDQLSSDVQTLNAKVDQLSNDVNAMRSDVQAAKDDAARANQRLDNMATKYRK

Variants of B1 are the subject of the data set. Conditions: Escherichia coli (strain K12), pH 7, CD, structure 1EQ7, whole UniProt chain shown; for ddG of mutation (higher = less stable) / unfolding free energy: 4 °C, GdnHCl, PBS; for Tm / change of melting temperature, mutant - wild type (higher = more stable): Thermal, Sodium phosphate 50mM, NaCl 150mM.

Broadly, the Tm is the temperature at which the thermal transition is half complete.

For S23A, the “ddG of mutation (higher = less stable)” value is 0.8 kcal/mol; the unfolding free energy was determined as 19.7 kcal/mol; the Tm came out at 64 °C; the “change of melting temperature, mutant - wild type (higher = more stable)” value is -3 °C.
Y76A: the “ddG of mutation (higher = less stable)” value is 1.1 kcal/mol; the unfolding free energy stood at 19.4 kcal/mol; the Tm worked out at 63 °C; the “change of melting temperature, mutant - wild type (higher = more stable)” value is -4 °C.

Source of the values: FireProtDB (doi:10.1006/jmbi.2000.3776).
